Results on three substances are retold here after doi:10.1101/2024.08.25.607996.

For test [1], the target named is FCoV-23 S domain B (receptor-binding domain), residues 529-677, avi- and His-tagged (FCoV-23 (feline coronavirus)). The test can be described thus: BLI. (In general: Biolayer interferometry detects binding as a change in optical thickness at a sensor tip.)
Test [2] has as its target feline APN ectodomain without the Fc fusion (dimer) (feline) (UniProt P79171). The test can be described thus: cryo-EM structure.

feline APN-Fc ectodomain (dimeric), sequence (P79171 64-967): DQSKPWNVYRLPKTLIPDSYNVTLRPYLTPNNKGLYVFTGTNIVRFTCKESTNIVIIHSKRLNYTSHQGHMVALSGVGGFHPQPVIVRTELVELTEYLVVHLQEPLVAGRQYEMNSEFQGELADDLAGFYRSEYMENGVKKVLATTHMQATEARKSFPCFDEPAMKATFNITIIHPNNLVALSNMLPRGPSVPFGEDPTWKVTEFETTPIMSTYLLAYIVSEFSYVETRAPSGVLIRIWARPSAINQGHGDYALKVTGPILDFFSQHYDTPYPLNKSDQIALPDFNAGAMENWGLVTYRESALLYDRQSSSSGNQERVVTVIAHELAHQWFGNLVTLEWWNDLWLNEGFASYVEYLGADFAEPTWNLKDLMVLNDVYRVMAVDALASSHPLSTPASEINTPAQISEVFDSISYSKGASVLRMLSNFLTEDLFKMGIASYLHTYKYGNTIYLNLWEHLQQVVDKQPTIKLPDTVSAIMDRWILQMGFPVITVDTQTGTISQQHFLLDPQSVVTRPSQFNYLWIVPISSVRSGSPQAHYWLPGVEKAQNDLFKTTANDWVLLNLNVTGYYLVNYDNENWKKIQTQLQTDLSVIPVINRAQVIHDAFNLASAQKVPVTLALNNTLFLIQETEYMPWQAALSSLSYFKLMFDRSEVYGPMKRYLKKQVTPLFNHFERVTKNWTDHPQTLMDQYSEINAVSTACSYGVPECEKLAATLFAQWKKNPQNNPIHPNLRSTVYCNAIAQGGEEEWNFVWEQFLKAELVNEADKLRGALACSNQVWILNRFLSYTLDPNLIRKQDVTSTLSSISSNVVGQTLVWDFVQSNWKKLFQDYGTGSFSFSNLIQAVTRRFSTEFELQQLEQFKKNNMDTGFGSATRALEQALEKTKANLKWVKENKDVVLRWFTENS
feline APN ectodomain without the Fc fusion (dimer) (feline), sequence (P79171 64-967): as above
canine APN-Fc ectodomain (dimeric), sequence (P79143 71-975): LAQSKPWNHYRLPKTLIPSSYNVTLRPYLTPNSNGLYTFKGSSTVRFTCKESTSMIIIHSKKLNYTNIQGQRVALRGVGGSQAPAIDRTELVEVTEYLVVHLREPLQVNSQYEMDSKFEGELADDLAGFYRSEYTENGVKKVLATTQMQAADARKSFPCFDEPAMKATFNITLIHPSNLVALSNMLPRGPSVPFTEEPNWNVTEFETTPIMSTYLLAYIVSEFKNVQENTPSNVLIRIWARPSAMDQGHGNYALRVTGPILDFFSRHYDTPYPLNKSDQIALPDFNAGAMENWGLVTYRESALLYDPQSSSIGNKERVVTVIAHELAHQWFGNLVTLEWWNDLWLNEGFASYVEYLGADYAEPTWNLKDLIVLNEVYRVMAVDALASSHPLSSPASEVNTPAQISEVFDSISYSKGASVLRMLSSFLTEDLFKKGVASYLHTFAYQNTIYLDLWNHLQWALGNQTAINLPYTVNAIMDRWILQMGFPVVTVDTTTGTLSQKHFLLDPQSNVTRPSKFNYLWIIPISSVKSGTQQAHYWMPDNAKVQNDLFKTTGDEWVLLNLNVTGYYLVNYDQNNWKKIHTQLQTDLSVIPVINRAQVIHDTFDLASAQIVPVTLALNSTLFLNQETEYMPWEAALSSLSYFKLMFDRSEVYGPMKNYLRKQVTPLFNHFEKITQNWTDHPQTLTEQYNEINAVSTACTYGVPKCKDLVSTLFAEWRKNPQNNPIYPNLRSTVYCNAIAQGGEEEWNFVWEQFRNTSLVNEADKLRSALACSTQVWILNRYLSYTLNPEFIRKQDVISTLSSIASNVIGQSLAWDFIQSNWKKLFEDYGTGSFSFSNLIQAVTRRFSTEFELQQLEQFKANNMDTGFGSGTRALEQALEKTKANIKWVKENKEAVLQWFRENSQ

Broadly, the Kd is the free concentration of one partner at which half of the binding sites on the other are occupied at equilibrium, for simple one-to-one binding. Take “canine APN-Fc ectodomain (dimeric) (from UniProt P79143 71-975) (Fc fusion)”: the Kd in test [1] is 1.3 nM.

The substance “FCoV-23 S domain B (receptor-binding domain), residues 529-677, avi- and His-tagged (domain or fragment)” gave a stoichiometry N (RBD per APN protomer) in test [2] of 1.

“feline APN-Fc ectodomain (dimeric) (from UniProt P79171 64-967) (Fc fusion)” had a Kd in test [1] of 11 nM.
